Assay results as given in patent publication US10786536B2, “Cardiac neural crest cells and methods of use thereof” (VESTION, INC., priority 2013, dated 2020).
“Also recorded” adds a separate entry of the source.

Assays:
Type in all cases: cell-based, mouse
[1] = system: EGFP^(+) cells (NCC^kit); assay: neonatal cKit^CreERT2/IRG myocardial explant culture with or without MSC feeders, live-cell quantification of EGFP^(+) cells
Experimental: To study the mechanisms controlling migration and proliferation in postnatal cardiac NCC^kit clones, 2-day old cKit^CreERT2/IRG neonates administered a single subcutaneous injection of 50 μl of tamoxifen. The next day, 3-day old postnatal hearts (PN3) were harvested, washed in ice-cold HBSS and cleaned from unwanted tissues under a stereomicroscope. They were then transferred in a tissue-cultured hood and, after additional washing steps with DMEM under sterile conditions, were minced into ˜1 mm^3 fragments and digested in a solution of DMEM/F12, 20% FBS, 1% penicillin/streptomycin and 200 units/ml Collagenase-Type II solution at 37° C. Following that, tissue explants were collected and washed twice with DMEM. Single tissue fragments were then picked under a stereomicroscope using a pipette, and cultured individually in single wells of gelatin-coated 24-well plates, with or without 1×10^5 MSCs feeders. Samples were fed every other day. The basic myocardial explant feeding medium consisted of DMEM/F12, 15% FBS, 1% penicillin/streptomycin, 1% β-mercaptoethanol, 1000 units/ml recombinant mouse LIF, 1 ng/ml recombinant mouse bFGF, and 0.1 mM nonessential amino acids. The impact of SCF was tested by supplementing the medium with 100 ng/ml recombinant murine SCF. For cKit neutralization, 100 ng/ml of rat anti-murine cKit antibody were supplemented to the medium. For assessing the role of Sdf1/Cxcr4, AMD3100 was supplemented to the medium, at a final concentration of 1 μM. Samples were then monitored daily, and clonal growth of EGFP^(+) cells was quantified every other day for 5-8 consecutive days, under a fluorescent microscope.
Myocardial explants from these animals were collected the following day, and were cultured in the presence or absence of MSC feeders. Swine MSCs were isolated and expanded from a single, healthy Yorkshire donor as previously described. Briefly, bone marrow was obtained from the iliac crest, and aspirates were passed through a density gradient to eliminate undesired cell types and were plated with 25 ml MEM Alpha media containing 20% fetal Bovine Serum in 162 cm^2 culture flasks. At 5-7 days after plating, non-adherent cells were washed away during medium changes and the remaining, plastic adherent, purified MSC population was expanded in culture. All used cells were harvested when they reached 80-90% confluence at passage 3-4, and inactivated for 3 h at 37° C. with 10 μg/ml of mitomycin C. Inactivated porcine MSC feeders were collected by trypsinization and cryopreserved in liquid nitrogen until use. For all experiments, MSCs feeders were seeded at a concentration of 2×10^5 MSCs/ml a day before use. The responses of EGFP^(+) cells under different culture conditions were monitored daily and quantified via live-cell fluorescence imaging every other day.
The effect of MSCs on NCC^kit migration was explored because recent studies reveal a chemotactic role of Sdf1/Cxcr4 axis on NCCs. Myocardial explant cultures were generated, as described above, and screened the emergence of EGFP^(+) cells in response to AMD3100, an inhibitor of the Sdf1/Cxcr4 axis. […] Thus, Sdf1/Cxcr4 axis regulates migration and differentiation of NCC^kit.

[2] = system: iPSC^kit-derived embryoid bodies; assay: in-vitro lineage tracing during cardiogenic differentiation of iPSC^kit-derived embryoid bodies pulsed with 4-OH tamoxifen
Source text: First, to specifically address the relationship between CNC^kit and the cKit^+/Nkx2.5^+ lineage purified from mouse ES and iPSCs-derived cardiac mesoderm, iPSCs from cKit^CreERT2/IRG adult tail-tip fibroblasts (iPSC^kit) were established. iPSC^kit stably express DsRed with no leakage of EGFP (<30 passages). As with the cKit^CreERT2/IRG mice DsRed is irreversibly replaced by EGFP in iPSC^kit-derivatives upon Cre-mediated recombination, which occurs in response to treatment with 4-OH tamoxifen. […] Thus, iPSC^kit are suitable for in-vitro lineage tracing of cKit-expressing cells. Cardiomyocyte differentiation was induced by treatment of iPSC^kit-derived embryoid bodies (EB) with ascorbic acid as previously described (FIG. 17). Successful differentiation was reflected in the development of spontaneously contracting cardiomyocytes. To genetically trace whether any of the generated cardiomyocytes were progeny of cKit^+ progenitors, EBs were pulsed with 4-OH tamoxifen at selected time-points during differentiation and monitored the emergence of spontaneously beating EGFP^+ derivatives (FIG. 17). Indeed, EGFP^+ derivatives were detected in ˜45% of the spontaneously beating EBs, confirming previous findings that mouse pluripotent stem cells can be consistently directed to generate cardiomyocytes via a cKit^+ cardiomyocyte progenitor lineage (data not shown). […]

[3] = system: iPSC^kit; assay: quantitative gene-expression analysis during cardiogenic differentiation of iPSC^kit; settings: noggin-treated iPSC^kit

c1cc(CN2CCCNCCNCCCNCC2)ccc1CN1CCCNCCNCCCNCC1 [AMD3100]
differentiation of EGFP^(+) cells into spontaneously beating/contracting cells ([1]; AMD3100 1 μM, compared to non-AMD3100 treated groups): massive differentiation into spontaneously contracting cardiomyocytes; also recorded: dramatic increase in the numbers of spontaneously beating EGFP^(+) cells | migration of EGFP^(+) cells from the cultured explants ([1]; explants on MSC feeders): blocked the migration of EGFP^(+) cells; also recorded: blocking cell migration | number / abundance of EGFP^(+) cells ([1]; explants on MSC feeders, compared to MSCs+SCF group, AMD3100 1 μM, anti-cKit antibody 100 ng/ml): significant reduction in the abundance of EGFP^(+) cells; also recorded: significantly decreased the number of EGFP^(+) cells

O=C1O[C@H]([C@@H](O)CO)C(O)=C1O [ascorbic acid]
spontaneously beating EBs with EGFP^+ derivatives ([2]; cardiomyocyte differentiation induced by ascorbic acid): ~45%

B1: noggin: BMP antagonist used for noggin-mediated antagonism of BMP signaling (protein, UniProt Q13253 28-232, looked up)
Noggin: QHYLHIRPAPSDNLPLVDLIEHPDPIFDPKEKDLNETLLRSLLGGHYDPGFMATSPPEDRPGGGGGAAGGAEDLAELDQLLRQRPSGAMPSEIKGLEFSEGLAQGKKQRLSKKLRRKLQMWLWSQTFCPVLYAWNDLGSRFWPRYVKVGSCFSKRSCSVPEGMVCKPSKSVHLTVLRWRCQRRGGQRCGWIPIQYPIISECKCSC
generation of EGFP^+ cardiomyocytes ([2]; BMP antagonism of iPSC^kit, EBs pulsed with 4-OH tamoxifen): resulted in the generation of EGFP^+ cardiomyocytes | expression of the epicardial progenitor cell markers WT1 and Tbx18 [3]: transiently repressed | expression of cKit, Wnt1, Snai2, Pax3 and MITF-H ([3]; selected time-points): dramatic upregulation

B2: SCF: recombinant murine SCF supplemented to the medium at 100 ng/ml (protein)
chain: KEICGNPVTDNVKDITKLVANLPNDYMITLNYVAGMDVLPSHCWLRDMVIQLSLSLTTLLDKFSNISEGLSNYSIIDKLGKIVDDLVLCMEENAPKNIKESPKRPETRSFTPEEFFSIFNRSIDAFKDFMVASDTSDCVLSSTLGPEKDSRVSVTKPFMLPPVA
increase in proliferative capacity of EGFP^(+) cells ([1]; 100 ng/ml recombinant murine SCF, MSCs present): 3.5 fold | proliferation of EGFP^(+) cells ([1]; SCF in the absence of MSCs): no significant differences were detected | migration of EGFP^(+) cells from the cultured explants ([1]; explants on MSC feeders): neither SCF nor cKit affected EGFP^(+) cell migration
